Test results: patent publication US11707511B2, “Vaccine compositions and methods of using the same” (The Board of Supervisors of Louisiana State University and …, priority 2017, dated 2023)

B1: 1D4H5: IgG1 mAb of hybridoma 1D4H5, specific for GPV-M1; VH SEQ ID NO: 64, VL SEQ ID NO: 66 (antibody, V domains shown)
VH: MYLGLNCVFIVFLLKGVQSEVKLEESGGGLVQPGGSMKLSCVASGFTFSNYWMNWVRQSPEKGLEWVAEIRLKSNNYATHYAESVKGRFTISSDDSKSSVYLQMNNLRAEDTGIYYCSTGNYWGQGTTLTVSS
VL: MDFQMQIISLLLISVTVIVSNGEIVLTQSPTTMAASPGEKITITCSASSTISSNYLHWYQQKPGFSPKLLIYRTSNLASGVPARFSGSGSGTSYSLTIGTMEAEDVATYYCQQGSTISRTFGSGTKLEIK
B2: 10E7E2: IgG1 mAb of hybridoma 10E7E2, specific for GPV-P3; VH SEQ ID NO: 72, VL SEQ ID NO: 74 (antibody, V domains shown)
VH: QVQLKQSGPGLVQPSQSLSITCTVSGFSLTSYGVHWVRQSPGKGLEWLGVIWSGGTTDYNAAFISRLSISKDNSKSQVFFKMNSLQANDTAIYYCARGGHRGFAYWGQGTLVTVSA
VL: DIVMTQSHKFMSTSVGDRVSITCKASQDVGTAVAWYQQKPGQSPKLLIYWASTRHTGVPDRFTGSGSGTDFTLTISNVQSEDLADYFCQQYSSYPLTFGAGTKLELK

Tested on: C. albicans 3153A
Assay: Passive transfer of mAbs or mAb cocktails i.p. before lethal i.v. challenge, mouse model of human disseminated candidiasis
Assay type: in vivo, Candida albicans
Conditions: for Protection against C. albicans / Protection against C. albicans (grade word): Table 6, single mAb 0.5 ml i.p. 4 h before i.v. 5×10^5 C. albicans 3153A, BALB/c mice; for Protection against Candida spp in mouse model: Against C. albicans / Protection against Candida spp in mouse model: Against C. albicans (grade word): Table 9; for Protection of adsorbed mAb / Protection / Protection (grade word): Table 15; for Protection of adsorbed mAb: mAb removed by absorption with Candida cells before transfer; for Protection / Protection (grade word): single universal peptide-specific mAb, C. albicans
Outline: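 Female BALB/c mice aged 6–8 weeks received 0.5 ml of a single mAb, or 1 ml of a two-mAb cocktail, i.p. 4 h before i.v. lethal C. albicans 3153A challenge, five mice per group over three experiments. Some groups were redosed every other day for two weeks. Survival followed to day 50.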

Row | Molecule | Protection against C. albicans | Protection against C. albicans (grade word) | Protection against Candida spp in mouse model: Against C. albicans | Protection against Candida spp in mouse model: Against C. albicans (grade word) | Protection of adsorbed mAb | Protection | Protection (grade word)
1 | B1 | (70-80%) | High | (70-80%) | High | None | (70-80%) | High
2 | B2 | (80-100%) | High | (80-100% | High | None | (80-100%) | High
